B1: INTS4 (parent)
chain: YSSGEFSSGRKWGDDAPKEEVDTG

Variants of: B1
Test: protein stability index of a GFP-peptide fusion (GPS, HEK-293T) (PSI 1-6); higher = more stable
Conditions: c terminus: a fixed tail appended
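Further: lentivirally expressed fusions sorted by FACS into six bins by GFP to DsRed ratio, PSI derived from sequencing read proportions per bin multiplied by bin number.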

Variant | protein stability index
YSSGEFSSGRKWGDKAPKEEVDTG | 2.18
YSSGEFSSGRKWGDLAPKEEVDTG | 2.04
YSSGEFSSGRKWGDMAPKEEVDTG | 1.78
YSSGEFSSGRKWGDNAPKEEVDTG | 2.34
YSSGEFSSGRKWGDPAPKEEVDTG | 1.96
YSSGEFSSGRKWGDQAPKEEVDTG | 2.12
YSSGEFSSGRKWGDRAPKEEVDTG | 1.92
YSSGEFSSGRKWGDSAPKEEVDTG | 2.54
YSSGEFSSGRKWGDTAPKEEVDTG | 2.28
YSSGEFSSGRKWGDVAPKEEVDTG | 1.78
YSSGEFSSGRKWGDWAPKEEVDTG | 1.69
YSSGEFSSGRKWGDYAPKEEVDTG | 2.01
YSSGEFSSGRKWGDDCPKEEVDTG | 2.71
YSSGEFSSGRKWGDDDPKEEVDTG | 2.95
YSSGEFSSGRKWGDDEPKEEVDTG | 2.99
YSSGEFSSGRKWGDDFPKEEVDTG | 2.3
YSSGEFSSGRKWGDDGPKEEVDTG | 2.16
YSSGEFSSGRKWGDDHPKEEVDTG | 1.92
YSSGEFSSGRKWGDDIPKEEVDTG | 2.28
YSSGEFSSGRKWGDDKPKEEVDTG | 2.19
YSSGEFSSGRKWGDDLPKEEVDTG | 2.48
YSSGEFSSGRKWGDDMPKEEVDTG | 2.52
YSSGEFSSGRKWGDDNPKEEVDTG | 2.09
YSSGEFSSGRKWGDDPPKEEVDTG | 2.32

Variant | protein stability index
YSSGEFSSGRKWGDDQPKEEVDTG | 2.71
YSSGEFSSGRKWGDDRPKEEVDTG | 2.71
YSSGEFSSGRKWGDDSPKEEVDTG | 2.63
YSSGEFSSGRKWGDDTPKEEVDTG | 2.28
YSSGEFSSGRKWGDDVPKEEVDTG | 2.42
YSSGEFSSGRKWGDDWPKEEVDTG | 2.01
YSSGEFSSGRKWGDDYPKEEVDTG | 2.56
YSSGEFSSGRKWGDDAAKEEVDTG | 2.84
YSSGEFSSGRKWGDDACKEEVDTG | 2.64
YSSGEFSSGRKWGDDADKEEVDTG | 3.06
YSSGEFSSGRKWGDDAEKEEVDTG | 2.8
YSSGEFSSGRKWGDDAFKEEVDTG | 2.45
YSSGEFSSGRKWGDDAGKEEVDTG | 2.09
YSSGEFSSGRKWGDDAHKEEVDTG | 1.47
YSSGEFSSGRKWGDDAIKEEVDTG | 2.44
YSSGEFSSGRKWGDDAKKEEVDTG | 2.31
YSSGEFSSGRKWGDDALKEEVDTG | 2.57
YSSGEFSSGRKWGDDAMKEEVDTG | 2.39
YSSGEFSSGRKWGDDANKEEVDTG | 2.87
YSSGEFSSGRKWGDDAQKEEVDTG | 2.35
YSSGEFSSGRKWGDDARKEEVDTG | 2.01
YSSGEFSSGRKWGDDASKEEVDTG | 3.25
YSSGEFSSGRKWGDDATKEEVDTG | 2.96
YSSGEFSSGRKWGDDAVKEEVDTG | 2.74

Variant | protein stability index
YSSGEFSSGRKWGDDAWKEEVDTG | 2.9
YSSGEFSSGRKWGDDAYKEEVDTG | 1.99
YSSGEFSSGRKWGDDAPAEEVDTG | 3.05
YSSGEFSSGRKWGDDAPCEEVDTG | 2.62
YSSGEFSSGRKWGDDAPDEEVDTG | 3.16
YSSGEFSSGRKWGDDAPEEEVDTG | 3.84
YSSGEFSSGRKWGDDAPFEEVDTG | 4.04
YSSGEFSSGRKWGDDAPGEEVDTG | 3.44
YSSGEFSSGRKWGDDAPHEEVDTG | 2.83
YSSGEFSSGRKWGDDAPIEEVDTG | 2.73
YSSGEFSSGRKWGDDAPLEEVDTG | 2.49
YSSGEFSSGRKWGDDAPMEEVDTG | 2.82
YSSGEFSSGRKWGDDAPNEEVDTG | 2.96
YSSGEFSSGRKWGDDAPPEEVDTG | 3.08
YSSGEFSSGRKWGDDAPQEEVDTG | 2.92
YSSGEFSSGRKWGDDAPREEVDTG | 3.13
YSSGEFSSGRKWGDDAPSEEVDTG | 3.16
YSSGEFSSGRKWGDDAPTEEVDTG | 2.56
YSSGEFSSGRKWGDDAPVEEVDTG | 2.81
YSSGEFSSGRKWGDDAPWEEVDTG | 2.88
YSSGEFSSGRKWGDDAPYEEVDTG | 2.62
YSSGEFSSGRKWGDDAPKAEVDTG | 2.67
YSSGEFSSGRKWGDDAPKCEVDTG | 2.37
YSSGEFSSGRKWGDDAPKDEVDTG | 2.74

Variant | protein stability index
YSSGEFSSGRKWGDDAPKFEVDTG | 2.97
YSSGEFSSGRKWGDDAPKGEVDTG | 2.48
YSSGEFSSGRKWGDDAPKHEVDTG | 2.09
YSSGEFSSGRKWGDDAPKIEVDTG | 2.32
YSSGEFSSGRKWGDDAPKKEVDTG | 2
YSSGEFSSGRKWGDDAPKLEVDTG | 1.94
YSSGEFSSGRKWGDDAPKMEVDTG | 2.93
YSSGEFSSGRKWGDDAPKNEVDTG | 2.52
YSSGEFSSGRKWGDDAPKPEVDTG | 2.3
YSSGEFSSGRKWGDDAPKQEVDTG | 2.95
YSSGEFSSGRKWGDDAPKREVDTG | 1.75
YSSGEFSSGRKWGDDAPKSEVDTG | 2.26
YSSGEFSSGRKWGDDAPKTEVDTG | 2.72
YSSGEFSSGRKWGDDAPKVEVDTG | 1.84
YSSGEFSSGRKWGDDAPKYEVDTG | 1.74
YSSGEFSSGRKWGDDAPKEAVDTG | 2.3
YSSGEFSSGRKWGDDAPKECVDTG | 2.5
YSSGEFSSGRKWGDDAPKEDVDTG | 2.49
YSSGEFSSGRKWGDDAPKEFVDTG | 2.42
YSSGEFSSGRKWGDDAPKEGVDTG | 2.17
YSSGEFSSGRKWGDDAPKEHVDTG | 2.63
YSSGEFSSGRKWGDDAPKEIVDTG | 2.43

Reference: the supplement of paper PMC10567573
